Article PMC11012335

Experiments:
[1] = target: Hfq WT (Escherichia coli K-12 MG1655) (UniProt P0A6X3); experiment: EMSA; details: EMSA: 20 mM Tris-HCl pH 7.6, 0.5 M NaCl, 1 mM EDTA, 1% glycerol, 20 min at 25 C, native PAGE in 0.5x TBE at 4 C
[2] = target: Hfq WT (Escherichia coli K-12 MG1655) (UniProt P0A6X3); experiment: competition; details: EMSA: 20 mM Tris-HCl pH 7.6, 0.5 M NaCl, 1 mM EDTA, 1% glycerol, 20 min at 25 C; native PAGE in 0.5x TBE at 4 C

Row | Substance | K half ([1]; Hfq monomer, K1 (first shift)) | binding signal ([1]; 347.5 nM Hfq monomer) | binding [2] | K half [1]
1 | DsrA | 122 nM | – | – | –
2 | RNA I FL | 225 nM | 72.1 % bound | – | –
3 | GGGAACACAUCAGAUUUCCUGGUGUAACGAAUUUUUUAAGUGCUUCUUGCUUAAGCAAGUUUCAUCCCGACCCCCUCAGGGUCGGGAUUU [DsrA] | – | – | binds | 122 nM
